The values below come from patent US20240409663A1 (CONCEPT TO MEDICINE BIOTECH, published 2024).

Experiment [1] concerns the target T1, human GPC3 on cells (human, UniProt P51654 25-554).
T1 construct: whole, on cells; over-expressed on CHOK1 cells or endogenous on HEPG2, Hep3B and Huh-7 hepatocellular carcinoma cells; the cell line is named under assay; also called GPC3-CHOK1 cells; human GPC3 over-expressed CHOK1 cells
Kind of experiment: FACS, GPC3-CHOK1 cells. How it is done: (§1) Cell-based binding: FACS was used to evaluate the binding activity of 52H5D3B8, 52H5D3B8-6 # chimeric mAbs and GC33 antibody on human GPC3 over-expressed CHOK1 cells, Hep3B cells and Huh-7 cells.
(§2) Briefly, GPC3-CHOK1 cells, Hep3B cells or Huh-7 cells were firstly incubated with Fc blocking reagent at 4° C. for 15 mins. Cells were washed by FACS buffer and divided to each well with 3-fold serially diluted 52H5D3B8, 52H5D3B8-6 # chimeric mAbs or GC33 antibody starting at 30 μg/mL at 4° C. for 60 mins. Cells were washed by FACS buffer and fixed with 2% PFA at RT for 15 mins. […] Samples were washed twice with FACS buffer.
For orientation: Flow cytometry measures light scatter and fluorescence of single cells or particles in a stream.

A further experiment concerns the target T2, mouse GPC3 protein (mouse, UniProt Q8CFZ4 25-558, limits assumed).
T2 construct: protein coated on plates in the cross species ELISA
Briefly: ELISA, coated mouse GPC3. How it is done:
(§3) ELISA testing was carried out to evaluate the binding of chimeric antibodies to human, mouse and cynomolgus GPC3, respectively.
(§4) Briefly, microtiter plates were coated with human, mouse and cynomolgus GPC3 proteins at 1 μg/ml in PBS, 100 μl/well at 4° C. overnight, then blocked with 150 μl/well of 1% BSA. Three-fold dilutions of chimeric antibodies starting from 9 μg/ml were added to each well and incubated for 1 hour at 37° C. The plates were washed with PBS/Tween and then incubate with mouse-anti-human IgG Fc antibody conjugated with Horse Radish Peroxidase (HRP) for 30 mins at 37° C. After washing, the plates were developed with TMB substrate and analyzed by spectrophotometer at OD 450 nm. The 52H5D3B8 antibody bound to human, cynomolgus GPC3 and mouse GPC3 (FIG. 3 and Table 4).
(In an ELISA, binding on a coated surface is turned into a signal by an enzyme label.)

Experiment [2] concerns the target T3, human GPC3 protein (ELISA coat) (human, UniProt P51654 25-559, limits assumed).
T3 construct: protein coated on plates in the cross species ELISA
Briefly: ELISA, coated human GPC3. How it is done: as §3, §4

The target in experiment [3] is T1, human GPC3 on cells. Briefly: FACS, Hep3B cells. How it is done: as §1, §2
The target in experiment [4] is T1, human GPC3 on cells. Briefly: FACS, GPC3-CHOK1 cells. How it is done:
Cell-based binding: FACS was used to evaluate the binding activity of chimeric mAbs (18C1D9, 52H5D3B8, 163E7D12, 172B4E9, 152E9F7 and 171F9C5) with comparison to a known GPC3 antibody GC33 (Chugai Pharmaceutical) on human GPC3 over-expressed CHOK1 cells.
Briefly, GPC3-CHOK1 cells were washed by FACS buffer and divided to each well with 3-fold serially diluted chimeric mAbs or GC33 mAb starting at 5 μg/mL at 4° C. for 40 mins. […] Samples were washed twice with FACS buffer.
This is another data set of the same source.

The target in experiment [5] is T1, human GPC3 on cells. Briefly: FACS, GPC3-CHOK1 cells. How it is done: Briefly, GPC3-CHOK1 cells were firstly incubated with Fc blocking reagent at 4° C. for 15 mins. Cells were washed by FACS buffer and divided to each well with 3-fold serially diluted 52H5D3B8, 52H5D3B8-1 #, 52H5D3B8-2 #, 52H5D3B8-3 #, 52H5D3B8-4 #, 52H5D3B8-5 #, 52H5D3B8-6 #, 52H5D3B8-7 #, 52H5D3B8-8 #, 52H5D3B8-9 #, 52H5D3B8-10 #, 52H5D3B8-11 #, 52H5D3B8-12 #, 52H5D3B8-13 #, 52H5D3B8-14 # and 52H5D3B8-15# chimeric mAbs starting at 30 μg/mL at 4° C. for 60 mins. Cells were washed by FACS buffer and fixed with 2% PFA at RT for 15 mins. […] Samples were washed twice with FACS buffer.
The source holds these as a separate data set.

The target of experiment [6] is T1, human GPC3 on cells. Briefly: FACS, GPC3-CHOK1 cells. How it is done: (§5) Cell-based binding: FACS was used to evaluate the binding activity of 52H5D3B8 chimeric mAbs with comparison to a known GPC3 antibody GC33 (Chugai Pharmaceutical) on human GPC3 over-expressed CHOK1 cells, HEPG2 cells, Hep3B cells and Huh-7 cells.
(§6) Briefly, GPC3-CHOK1 cells, HEPG2 cells, Hep3B cells or Huh-7 cells were firstly incubated with Fc blocking reagent at 4° C. for 15 mins. Cells were washed by FACS buffer and divided to each well with 3-fold serially diluted 52H5D3B8 chimeric mAbs or GC33 mAb starting at 30 μg/mL at 4° C. for 60 mins. Cells were washed by FACS buffer and fixed with 2% PFA at RT for 15 mins. […] Samples were washed twice with FACS buffer.
The source holds these as a separate data set.

Experiment [7] has as its target T1, human GPC3 on cells. Kind of experiment: FACS, Huh-7 cells. How it is done:
as §5, §6

Experiment [8] has as its target T1, human GPC3 on cells. Kind of experiment: FACS, Huh-7 cells. How it is done:
To evaluate the antigen binding property, the humanized antibodies were analyzed for their binding to human GPC3 over-expressed CHOK1 cells and Huh-7 cells by FACS. Briefly, GPC3-CHOK1 cells and Huh-7 cells were firstly incubated with Fc blocking reagent at 4° C. for 15 mins. Cells were washed by FACS buffer and divided to each well with 4-fold serially diluted humanized antibodies starting at 10 μg/mL at 4° C. for 60 mins. Cells were washed by FACS buffer and fixed with 2% PFA at RT for 15 mins. […] As different plates might affect the EC50 of 52H5D3B8-VH+VL, the 12 humanized antibodies were separated into two plates.
This is another data set of the same source.

In experiment [9] the target is T4, human GPC3-his tag protein (human, UniProt P51654 25-559, limits assumed).
T4 construct: recombinant soluble antigen used as analyte in all Biacore runs; also called recombinant GPC3 protein; rhGPC3-His; not shown: His tag
Briefly: SPR Biacore 8K, mAb captured, affinity ranking. How it is done:
To evaluate antigen binding activity, the chimeric antibody's affinity was measured by Biacore 8K. Two concentrations with most close affinity to the chimeric antibody's affinity were chosen for the 12 humanized antibodies' affinity detection. Human GPC3-his tag protein was injected over captured antibody for 3 mins at a flow rate of 30 μl/min. The antigen was allowed to dissociate for 720 s.
On the technique in general: SPR reads the build-up and loss of mass on a sensor chip optically.

T2 sequence (Q8CFZ4 25-558 limits assumed): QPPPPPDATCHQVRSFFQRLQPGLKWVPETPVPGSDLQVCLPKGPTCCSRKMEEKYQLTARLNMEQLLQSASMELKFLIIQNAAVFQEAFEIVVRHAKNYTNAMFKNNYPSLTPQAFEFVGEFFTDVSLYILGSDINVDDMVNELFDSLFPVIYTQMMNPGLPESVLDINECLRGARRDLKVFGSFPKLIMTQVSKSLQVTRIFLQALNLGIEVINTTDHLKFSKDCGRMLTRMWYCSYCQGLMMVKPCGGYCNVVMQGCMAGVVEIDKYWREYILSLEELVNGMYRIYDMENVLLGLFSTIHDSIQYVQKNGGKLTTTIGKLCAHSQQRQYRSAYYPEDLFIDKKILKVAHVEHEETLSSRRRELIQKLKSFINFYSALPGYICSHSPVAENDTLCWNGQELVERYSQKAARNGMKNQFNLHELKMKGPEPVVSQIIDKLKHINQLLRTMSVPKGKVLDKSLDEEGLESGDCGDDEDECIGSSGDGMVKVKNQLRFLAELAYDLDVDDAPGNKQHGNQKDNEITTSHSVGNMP

B1: 52H5D3B8 chimeric mAb (antibody, V domains shown)
VH: QVQLQQSGAELVRPGASVKLSCKALGYTFTDYEMHWVKQTPVHGLEWIGAIHPGSGGTAYNQKFKGKATLTADKFSSTGYMELSSLTSEDSAVYYCTRFYSYAYWGQGTLVTVSA
VL: DVVMTQTPLSLPVSLGDQASISCRSSQSLVHSNGNTYLQWYLQKPGQSPKLLIYKVSNRFSGVPDRFSGSGSGTDFILKISRVEAEDLGVYFCSQSIHVPYTFGGGTKLEIK
notes: also called 52H5D3B8-VH+VL; chimeric 52H5D3B8 mAb
As for B1, the EC50 (as a rule, the concentration giving half of the maximal effect) in the experiment with human GPC3 on cells [1] was found to be 0.07 µg/mL; with mouse GPC3 protein, 4.95 µg/mL; in [2] it was 0.017 µg/mL; in the experiment with human GPC3 on cells [3], 0.217 µg/mL; in the experiment with human GPC3 on cells [4] it was 0.0909 µg/mL; with human GPC3 on cells [5], 0.0705 µg/mL. Further, the figures for the EC50 with human GPC3 on cells [6], in the experiment with human GPC3 on cells [7] and with human GPC3 on cells [8] were 0.0922 µg/mL, 0.0986 µg/mL and 0.0563 µg/mL, respectively. In addition, the equilibrium dissociation constant (Kd) (usually a measure of binding affinity in units of concentration) in [9] was 1.41 nM. The koff (in general, a measure of how fast the partners let go of each other) in experiment [9] stood at 0.00049 s⁻¹. For the same molecule, the on-rate constant (kon) (as a rule, the second-order rate constant of association) in [9] came to 347000 M⁻¹ s⁻¹.
